Data reported in article PMC9482650, “Quantitative fragmentomics allow affinity mapping of interactomes” (Nature Communications, 2022).

T1: SHANK1, Q9Y566
T1 sequence (Q9Y566 658-767, limits assumed, looked up): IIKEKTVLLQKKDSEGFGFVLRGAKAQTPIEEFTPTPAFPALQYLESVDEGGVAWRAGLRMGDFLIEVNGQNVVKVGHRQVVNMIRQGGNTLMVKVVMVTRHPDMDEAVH

T2: MPP6, Q9NZW5
T2 sequence (Q9NZW5 125-219, limits assumed, looked up): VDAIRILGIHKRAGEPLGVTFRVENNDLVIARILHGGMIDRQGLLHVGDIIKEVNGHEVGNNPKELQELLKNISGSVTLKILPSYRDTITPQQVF

T3: DFNB31_3, Q9P202
T3 sequence (Q9P202 811-907, limits assumed, looked up): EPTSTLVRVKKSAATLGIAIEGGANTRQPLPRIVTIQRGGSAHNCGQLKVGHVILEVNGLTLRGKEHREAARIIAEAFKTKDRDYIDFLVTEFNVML

T4: GRIP1_7, Q9Y3R0
T4 sequence (Q9Y3R0 999-1096, limits assumed, looked up): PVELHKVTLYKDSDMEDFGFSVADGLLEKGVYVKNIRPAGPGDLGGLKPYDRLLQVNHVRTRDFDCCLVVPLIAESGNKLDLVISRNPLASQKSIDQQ

T5: DFNB31_2, Q9P202
T5 sequence (Q9P202 274-371, limits assumed, looked up): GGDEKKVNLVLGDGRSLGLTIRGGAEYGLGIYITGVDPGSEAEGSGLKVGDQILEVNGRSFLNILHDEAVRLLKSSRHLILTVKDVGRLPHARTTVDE

T6: APBA1_1, Q02410
T6 sequence (Q02410 651-752, limits assumed, looked up): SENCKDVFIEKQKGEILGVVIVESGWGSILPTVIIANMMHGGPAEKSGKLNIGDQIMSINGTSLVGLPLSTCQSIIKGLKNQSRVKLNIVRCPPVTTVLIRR

T7: MPDZ_12, O75970
T7 sequence (O75970 1857-1958, limits assumed, looked up): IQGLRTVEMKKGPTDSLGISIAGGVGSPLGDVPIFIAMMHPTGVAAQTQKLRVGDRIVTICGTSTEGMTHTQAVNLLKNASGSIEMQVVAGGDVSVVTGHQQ

T8: PTPN13_1, Q12923
T8 sequence (Q12923 1088-1188, limits assumed, looked up): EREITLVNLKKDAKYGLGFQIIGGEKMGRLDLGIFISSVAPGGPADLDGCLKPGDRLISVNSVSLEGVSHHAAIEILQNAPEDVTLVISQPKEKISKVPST

T9: GRIP1_3, Q9Y3R0
T9 sequence (Q9Y3R0 247-346, limits assumed, looked up): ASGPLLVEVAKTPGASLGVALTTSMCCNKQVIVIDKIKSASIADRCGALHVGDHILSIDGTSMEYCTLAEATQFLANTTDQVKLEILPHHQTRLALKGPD

T10: PDZD7_3, Q9H5P4
T10 sequence (Q9H5P4 857-944, limits assumed, looked up): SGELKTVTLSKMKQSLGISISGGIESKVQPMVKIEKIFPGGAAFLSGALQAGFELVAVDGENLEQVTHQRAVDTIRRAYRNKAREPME

T11: APBA2_2, Q99767
T11 sequence (Q99767 654-744, limits assumed, looked up): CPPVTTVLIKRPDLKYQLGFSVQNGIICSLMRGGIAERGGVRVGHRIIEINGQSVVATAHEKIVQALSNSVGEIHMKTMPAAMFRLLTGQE

T12: SYNJ2BP, P57105
T12 sequence (P57105 8-110, limits assumed, looked up): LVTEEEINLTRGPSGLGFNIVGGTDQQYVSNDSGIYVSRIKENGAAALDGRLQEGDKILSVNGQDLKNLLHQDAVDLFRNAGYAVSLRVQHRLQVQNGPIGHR


Columns and labels:
Experiment in all cases: holdup assay
Set-up in all cases: key: below the threshold = too weak to quantify, mostly under pKd 3.1 to 4
Details in all cases: plain residues with an end cap or a label only (N-terminal biotin on a linker: ado-ado)
Inadl_8, Q8NI35 = target: Inadl_8, Q8NI35
Sequence of Inadl_8, Q8NI35 (Q8NI35 1425-1530): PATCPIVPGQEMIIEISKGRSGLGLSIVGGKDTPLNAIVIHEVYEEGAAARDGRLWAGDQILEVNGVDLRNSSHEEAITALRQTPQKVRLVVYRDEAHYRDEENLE

SHANK1, Q9Y566 = target: T1, SHANK1, Q9Y566
FRMPD2_2, Q68DX3 = target: FRMPD2_2, Q68DX3
Sequence of FRMPD2_2, Q68DX3 (Q68DX3 944-1038): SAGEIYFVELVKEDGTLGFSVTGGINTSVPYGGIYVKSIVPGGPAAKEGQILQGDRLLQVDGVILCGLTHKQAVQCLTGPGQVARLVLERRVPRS

DLG4_3, P78352 = target: DLG4_3, P78352
Sequence of DLG4_3, P78352 (P78352 306-403): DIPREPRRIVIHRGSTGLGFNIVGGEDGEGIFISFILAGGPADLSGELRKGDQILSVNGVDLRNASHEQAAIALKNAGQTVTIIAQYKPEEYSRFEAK

MPP6, Q9NZW5 = target: T2, MPP6, Q9NZW5
NHERF2_2, Q15599 = target: NHERF2_2, Q15599
Sequence of NHERF2_2, Q15599 (Q15599 142-238): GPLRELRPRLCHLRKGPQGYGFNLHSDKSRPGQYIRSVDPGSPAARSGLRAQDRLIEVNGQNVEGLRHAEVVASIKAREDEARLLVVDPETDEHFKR

PDZRN4_1, Q6ZMN7 = target: PDZRN4_1, Q6ZMN7
Sequence of PDZRN4_1, Q6ZMN7 (Q6ZMN7 213-318): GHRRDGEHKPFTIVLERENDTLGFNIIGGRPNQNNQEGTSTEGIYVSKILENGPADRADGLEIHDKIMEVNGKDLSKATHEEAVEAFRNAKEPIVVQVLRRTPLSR

MAST1, Q9Y2H9 = target: MAST1, Q9Y2H9
Sequence of MAST1, Q9Y2H9 (Q9Y2H9 962-1065): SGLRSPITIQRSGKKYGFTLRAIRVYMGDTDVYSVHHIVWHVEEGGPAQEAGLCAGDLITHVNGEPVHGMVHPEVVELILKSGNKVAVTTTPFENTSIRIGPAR

MAGI1_2, Q96QZ7 = target: MAGI1_2, Q96QZ7
Sequence of MAGI1_2, Q96QZ7 (Q96QZ7 456-580): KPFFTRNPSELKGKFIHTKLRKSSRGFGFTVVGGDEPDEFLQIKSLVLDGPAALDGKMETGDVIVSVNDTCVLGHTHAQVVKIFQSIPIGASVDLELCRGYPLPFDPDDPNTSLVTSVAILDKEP

DFNB31_3, Q9P202 = target: T3, DFNB31_3, Q9P202
GRIP1_7, Q9Y3R0 = target: T4, GRIP1_7, Q9Y3R0
DFNB31_2, Q9P202 = target: T5, DFNB31_2, Q9P202
GRID2IP_1, A4D2P6 = target: GRID2IP_1, A4D2P6
Sequence of GRID2IP_1, A4D2P6 (A4D2P6 1-87): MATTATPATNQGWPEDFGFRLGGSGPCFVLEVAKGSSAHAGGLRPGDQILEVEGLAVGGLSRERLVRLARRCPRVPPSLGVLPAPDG

APBA1_1, Q02410 = target: T6, APBA1_1, Q02410
CASK, O14936 = target: CASK, O14936
Sequence of CASK, O14936 (O14936 487-570): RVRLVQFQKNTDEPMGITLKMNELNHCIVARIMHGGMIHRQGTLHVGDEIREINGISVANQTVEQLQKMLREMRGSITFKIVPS

MPDZ_12, O75970 = target: T7, MPDZ_12, O75970
GOPC, Q9HD26 = target: GOPC, Q9HD26
PTPN13_1, Q12923 = target: T8, PTPN13_1, Q12923
GRIP1_3, Q9Y3R0 = target: T9, GRIP1_3, Q9Y3R0
PDZD7_3, Q9H5P4 = target: T10, PDZD7_3, Q9H5P4
TJP1_3, Q07157 = target: TJP1_3, Q07157
Sequence of TJP1_3, Q07157 (Q07157 416-512): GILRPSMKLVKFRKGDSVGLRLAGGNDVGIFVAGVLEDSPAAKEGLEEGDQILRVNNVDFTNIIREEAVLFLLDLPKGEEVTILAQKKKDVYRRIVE

MAGI1_1, Q96QZ7 = target: MAGI1_1, Q96QZ7
Sequence of MAGI1_1, Q96QZ7 (Q96QZ7 1-106): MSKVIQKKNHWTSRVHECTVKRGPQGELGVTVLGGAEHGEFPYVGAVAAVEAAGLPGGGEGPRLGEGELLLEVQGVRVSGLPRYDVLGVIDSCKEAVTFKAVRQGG

GRIP2_3, Q9C0E4 = target: GRIP2_3, Q9C0E4
Sequence of GRIP2_3, Q9C0E4 (Q9C0E4 238-339): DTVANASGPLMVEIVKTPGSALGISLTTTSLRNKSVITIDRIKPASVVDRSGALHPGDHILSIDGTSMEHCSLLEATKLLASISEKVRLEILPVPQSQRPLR

APBA2_2, Q99767 = target: T11, APBA2_2, Q99767
DLG4_2, P78352 = target: DLG4_2, P78352
Sequence of DLG4_2, P78352 (P78352 155-259): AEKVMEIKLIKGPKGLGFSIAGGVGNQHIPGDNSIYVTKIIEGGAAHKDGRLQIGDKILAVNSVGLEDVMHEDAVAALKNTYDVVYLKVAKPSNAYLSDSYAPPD

SYNJ2BP, P57105 = target: T12, SYNJ2BP, P57105

Binder | pKd (Inadl_8, Q8NI35) | pKd (SHANK1, Q9Y566) | pKd (FRMPD2_2, Q68DX3) | pKd (DLG4_3, P78352) | pKd (MPP6, Q9NZW5) | pKd (NHERF2_2, Q15599) | pKd (PDZRN4_1, Q6ZMN7) | pKd (MAST1, Q9Y2H9) | pKd (MAGI1_2, Q96QZ7) | pKd (DFNB31_3, Q9P202) | pKd (GRIP1_7, Q9Y3R0) | pKd (DFNB31_2, Q9P202) | pKd (GRID2IP_1, A4D2P6) | pKd (APBA1_1, Q02410) | pKd (CASK, O14936) | pKd (MPDZ_12, O75970) | pKd (GOPC, Q9HD26) | pKd (PTPN13_1, Q12923) | pKd (GRIP1_3, Q9Y3R0) | pKd (PDZD7_3, Q9H5P4) | other results
RRISSLESEV [GRIN2C, Q14957] | 3.58 | below the threshold | 3.85 | 3.78 | below the threshold | below the threshold | 4.17 | 4.54 | 4.05 | below the threshold | below the threshold | below the threshold | below the threshold | below the threshold | below the threshold | below the threshold | below the threshold | below the threshold | below the threshold | 4.32 | pKd (TJP1_3, Q07157): below the threshold; pKd (MAGI1_1, Q96QZ7): below the threshold; pKd (GRIP2_3, Q9C0E4): below the threshold; pKd (APBA2_2, Q99767): below the threshold; pKd (DLG4_2, P78352): 5.33; pKd (SYNJ2BP, P57105): 5.38
RRLPGKETMA [GRIK2, Q13002] | below the threshold | below the threshold | below the threshold | below the threshold | below the threshold | below the threshold | below the threshold | below the threshold | below the threshold | below the threshold | below the threshold | below the threshold | below the threshold | below the threshold | below the threshold | below the threshold | below the threshold | below the threshold | below the threshold | below the threshold | pKd (TJP1_3, Q07157): below the threshold; pKd (MAGI1_1, Q96QZ7): below the threshold; pKd (GRIP2_3, Q9C0E4): below the threshold; pKd (APBA2_2, Q99767): below the threshold; pKd (DLG4_2, P78352): below the threshold; pKd (SYNJ2BP, P57105): below the threshold
YNNCLEILRV [DCAF7, P61962] | below the threshold | below the threshold | below the threshold | below the threshold | below the threshold | below the threshold | below the threshold | 4.08 | below the threshold | below the threshold | below the threshold | below the threshold | below the threshold | below the threshold | below the threshold | below the threshold | below the threshold | below the threshold | below the threshold | below the threshold | pKd (TJP1_3, Q07157): below the threshold; pKd (MAGI1_1, Q96QZ7): below the threshold; pKd (GRIP2_3, Q9C0E4): below the threshold; pKd (APBA2_2, Q99767): below the threshold; pKd (DLG4_2, P78352): below the threshold; pKd (SYNJ2BP, P57105): below the threshold
